The results in this text go back to patent publication US20250388664A1.

In one test the target is AβpE11-40 monomer (UniProt P05067). The test is described as follows: inhibition ELISA: antibody at a fixed concentration pre-incubated with titrated AβpE11-40 monomer in solution, then on an AβpE3-40 coat; the x axis is the AβpE11-40 concentration. A general note: ELISA stands for enzyme-linked immunosorbent assay.
Another test addresses Aβ1-40 monomer (UniProt P05067). The test is described as follows: inhibition ELISA: antibody at a fixed concentration pre-incubated with titrated Aβ1-40 monomer in solution, then on an AβpE3-40 coat; the x axis is the Aβ1-40 concentration.

Aβ1-40 monomer, sequence (P05067 672-711): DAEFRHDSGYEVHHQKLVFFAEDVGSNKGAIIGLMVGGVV
AβpE11-40 monomer, sequence (P05067 682-711): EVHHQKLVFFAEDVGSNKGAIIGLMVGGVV

Turning to 4G8 (antibody), the IC50 (read off the curve) in the test with AβpE11-40 monomer and in the test with Aβ1-40 monomer was 20 nM throughout.
